For one series, the target named is T1, VirE2 (Agrobacterium tumefaciens (nopaline …, UniProt P08062 1-556)).
T1 sequence: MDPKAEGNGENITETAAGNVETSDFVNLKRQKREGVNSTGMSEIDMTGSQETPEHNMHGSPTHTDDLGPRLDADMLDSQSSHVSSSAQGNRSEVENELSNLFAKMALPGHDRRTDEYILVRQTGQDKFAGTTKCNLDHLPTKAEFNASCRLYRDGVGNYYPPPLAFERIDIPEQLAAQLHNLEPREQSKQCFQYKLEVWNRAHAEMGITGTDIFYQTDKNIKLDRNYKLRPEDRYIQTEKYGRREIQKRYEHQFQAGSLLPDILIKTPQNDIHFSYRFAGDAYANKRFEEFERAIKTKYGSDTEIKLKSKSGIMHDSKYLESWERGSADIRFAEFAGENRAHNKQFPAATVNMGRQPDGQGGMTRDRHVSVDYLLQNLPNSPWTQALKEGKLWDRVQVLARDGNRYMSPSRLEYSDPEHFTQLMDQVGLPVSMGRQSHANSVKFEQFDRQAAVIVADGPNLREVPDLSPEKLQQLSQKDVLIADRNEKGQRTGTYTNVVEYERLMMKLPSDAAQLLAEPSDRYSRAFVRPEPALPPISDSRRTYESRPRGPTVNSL
The series is described as follows: SPRi.

The target of series [1] is T2, VirE2 (co-expressed with VirE1);VirE1 (Agrobacterium tumefaciens (nopaline …, UniProt P08062;P08063 1-556;1-63, |)).
T2 sequence 1: T1 sequence
T2 sequence 2: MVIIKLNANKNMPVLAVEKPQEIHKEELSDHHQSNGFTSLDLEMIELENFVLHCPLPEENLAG
The series is described as follows: SPRi.

For TTTTTTTTTTTTTTTTTTTTTTTTTTTTTTTTTTTTTTTT (ssDNA, 5' C6-thiol) [ssT40 (poly-T 40-mer)], the binding result (with VirE2; in series [1]) was “binds” each time.

The values are drawn from article PMC4513855.
